Columns and labels:
Test in all cases: cell-based or functional assay
[1] = molecular target: BG505 (T332N) N386A (HIV-1)
JR-CSF N301A (HIV-1) = JR-CSF N301A (HIV-1) (UniProt P20871)
JR-CSF R327A (HIV-1) = JR-CSF R327A (HIV-1) (UniProt P20871)
[2] = molecular target: HIV-1 Env of pseudovirus BG505/T332N (HIV-1)
[3] = molecular target: HIV-1 YU2 Env N160K, on pseudovirus (HIV-1) (UniProt P35961)
[4] = molecular target: HIV-1 YU2 Env N276D, on pseudovirus (HIV-1) (UniProt P35961)
[5] = molecular target: HIV-1 YU2 Env N332K, on pseudovirus (HIV-1) (UniProt P35961)
[6] = molecular target: HIV-1 envelope (Env) of pseudovirus 0815.v3.c3 (HIV-1)
[7] = molecular target: HIV-1 envelope (Env) of pseudovirus 211-9 (HIV-1)
[8] = molecular target: HIV-1 envelope (Env) of pseudovirus 231966.c02 (HIV-1)
[9] = molecular target: HIV-1 envelope (Env) of pseudovirus 235-47 (HIV-1)
[10] = molecular target: HIV-1 envelope (Env) of pseudovirus 263-8 (HIV-1)
[11] = molecular target: HIV-1 envelope (Env) of pseudovirus 3016.v5.c45 (HIV-1)
[12] = molecular target: HIV-1 envelope (Env) of pseudovirus 3301.v1.c24 (HIV-1)
[13] = molecular target: HIV-1 envelope (Env) of pseudovirus 3415.v1.c1 (HIV-1)
[14] = molecular target: HIV-1 envelope (Env) of pseudovirus 3817.v2.c59 (HIV-1)
[15] = molecular target: HIV-1 envelope (Env) of pseudovirus 62357_14_D3_4589 (HIV-1)
[16] = molecular target: HIV-1 envelope (Env) of pseudovirus 6540.v4.c1 (HIV-1)
[17] = molecular target: HIV-1 envelope (Env) of pseudovirus 6545.v4.c1 (HIV-1)
[18] = molecular target: HIV-1 envelope (Env) of pseudovirus A07412M1.vrc12 (HIV-1)
[19] = molecular target: HIV-1 envelope (Env) of pseudovirus BF1266.431a (HIV-1)
[20] = molecular target: HIV-1 envelope (Env) of pseudovirus BJOX025000.01.1 (HIV-1)
[21] = molecular target: HIV-1 envelope (Env) of pseudovirus C2101.c01 (HIV-1)
[22] = molecular target: HIV-1 envelope (Env) of pseudovirus CNE17 (HIV-1)
[23] = molecular target: HIV-1 envelope (Env) of pseudovirus CNE21 (HIV-1)
[24] = molecular target: HIV-1 envelope (Env) of pseudovirus Ce1086_B2 (HIV-1)
[25] = molecular target: HIV-1 envelope (Env) of pseudovirus Ce2010_F5 (HIV-1)
[26] = molecular target: HIV-1 envelope (Env) of pseudovirus Ce704809221_1B3 (HIV-1)
[27] = molecular target: HIV-1 envelope (Env) of pseudovirus Du172.17 (HIV-1)
[28] = molecular target: HIV-1 envelope (Env) of pseudovirus P1981_C5_3 (HIV-1)
[29] = molecular target: HIV-1 envelope (Env) of pseudovirus Q461.e2 (HIV-1)
[30] = molecular target: HIV-1 envelope (Env) of pseudovirus R2184.c04 (HIV-1)
[31] = molecular target: HIV-1 envelope (Env) of pseudovirus REJO4541.67 (HIV-1)
[32] = molecular target: HIV-1 envelope (Env) of pseudovirus YU2_N332K (HIV-1) (UniProt P35961)
[33] = molecular target: HIV-1 envelope (Env) of pseudovirus ZM135M.PL10a (HIV-1)
[34] = molecular target: HIV-1 envelope (Env) of pseudovirus ZM197M.PB7 (HIV-1)
[35] = molecular target: HIV-1 envelope (Env) of pseudovirus ZM214M.PL15 (HIV-1)
[36] = molecular target: HIV-1 envelope (Env) of pseudovirus ZM53M.PB12 (HIV-1)

In the case of 354BG8 (antibody), the IC50 in TZM-bl assay [1] is reported as 0.004 µg/mL, the IC50 in TZM-bl assay (JR-CSF N301A (HIV-1)) is reported as 0.006 µg/mL and the IC50 in TZM-bl assay (JR-CSF R327A (HIV-1)) is reported as 0.005 µg/mL.

BG18 IgG (354BG18) (antibody) was tested, and the IC50 in TZM-bl assay [2] was under 0.0001 µg/mL, the IC80 in TZM-bl assay [2] was 0.002 µg/mL and the IC50 in TZM-bl assay [3] was 0.028 µg/mL. The IC80 in TZM-bl assay [3] was 0.15 µg/mL, the IC50 in TZM-bl assay [4] was 0.012 µg/mL and the IC80 in TZM-bl assay [4] was 0.036 µg/mL. The IC50 in TZM-bl assay [5] was over 30 µg/mL and the IC80 in TZM-bl assay [5] was over 30 µg/mL.

For BG1 (antibody), the IC50 in TZM-bl assay [6] was over 30 µg/mL, the IC80 in TZM-bl assay [6] was over 30 µg/mL and the IC50 in TZM-bl assay [7] was 2.85 µg/mL. For the same substance, the IC80 in TZM-bl assay [7] was 12.9 µg/mL, the IC50 in TZM-bl assay [8] was over 30 µg/mL and the IC80 in TZM-bl assay [8] was over 30 µg/mL. It also gave an IC50 in TZM-bl assay [9] of 1.27 µg/mL, an IC80 in TZM-bl assay [9] of 4.38 µg/mL and an IC50 in TZM-bl assay [10] of over 30 µg/mL. For the same substance, the IC80 in TZM-bl assay [10] was over 30 µg/mL, the IC50 in TZM-bl assay [11] was over 30 µg/mL and the IC80 in TZM-bl assay [11] was over 30 µg/mL. It also gave an IC50 in TZM-bl assay [12] of over 30 µg/mL, an IC80 in TZM-bl assay [12] of over 30 µg/mL and an IC50 in TZM-bl assay [13] of 14.4 µg/mL. For the same substance, the IC80 in TZM-bl assay [13] was over 30 µg/mL, the IC50 in TZM-bl assay [14] was 11.1 µg/mL and the IC80 in TZM-bl assay [14] was over 30 µg/mL. For the same substance, the IC50 in TZM-bl assay [15] was 0.638 µg/mL, the IC80 in TZM-bl assay [15] was 2.89 µg/mL and the IC50 in TZM-bl assay [16] was over 30 µg/mL. It also gave an IC80 in TZM-bl assay [16] of over 30 µg/mL, an IC50 in TZM-bl assay [17] of over 30 µg/mL and an IC80 in TZM-bl assay [17] of over 30 µg/mL. The IC50 in TZM-bl assay [18] was over 30 µg/mL, the IC80 in TZM-bl assay [18] was over 30 µg/mL and the IC50 in TZM-bl assay [19] was over 30 µg/mL. The IC80 in TZM-bl assay [19] was over 30 µg/mL, the IC50 in TZM-bl assay [20] was over 30 µg/mL and the IC80 in TZM-bl assay [20] was over 30 µg/mL. It also gave an IC50 in TZM-bl assay [21] of over 30 µg/mL, an IC80 in TZM-bl assay [21] of over 30 µg/mL and an IC50 in TZM-bl assay [22] of over 30 µg/mL. It also gave an IC80 in TZM-bl assay [22] of over 30 µg/mL, an IC50 in TZM-bl assay [23] of over 30 µg/mL and an IC80 in TZM-bl assay [23] of over 30 µg/mL. For the same substance, the IC50 in TZM-bl assay [24] was over 30 µg/mL, the IC80 in TZM-bl assay [24] was over 30 µg/mL and the IC50 in TZM-bl assay [25] was over 30 µg/mL. It also gave an IC80 in TZM-bl assay [25] of over 30 µg/mL, an IC50 in TZM-bl assay [26] of 3.25 µg/mL and an IC80 in TZM-bl assay [26] of 18.5 µg/mL. The IC50 in TZM-bl assay [27] was over 30 µg/mL, the IC80 in TZM-bl assay [27] was over 30 µg/mL and the IC50 in TZM-bl assay [28] was over 30 µg/mL. It also gave an IC80 in TZM-bl assay [28] of over 30 µg/mL, an IC50 in TZM-bl assay [29] of over 30 µg/mL and an IC80 in TZM-bl assay [29] of over 30 µg/mL. For the same substance, the IC50 in TZM-bl assay [30] was over 30 µg/mL, the IC80 in TZM-bl assay [30] was over 30 µg/mL and the IC50 in TZM-bl assay [31] was 0.342 µg/mL. It also gave an IC80 in TZM-bl assay [31] of 1.66 µg/mL, an IC50 in TZM-bl assay [32] of 19.4 µg/mL and an IC80 in TZM-bl assay [32] of over 30 µg/mL. The IC50 in TZM-bl assay [33] was over 30 µg/mL, the IC80 in TZM-bl assay [33] was over 30 µg/mL and the IC50 in TZM-bl assay [34] was over 30 µg/mL. It also gave an IC80 in TZM-bl assay [34] of over 30 µg/mL, an IC50 in TZM-bl assay [35] of over 30 µg/mL and an IC80 in TZM-bl assay [35] of over 30 µg/mL. For the same substance, the IC50 in TZM-bl assay [36] was over 30 µg/mL and the IC80 in TZM-bl assay [36] was over 30 µg/mL.
